The values that follow are results of earlier work, collected in PMC10631023.

What is called Kd is the constant that tells how readily two partners part at equilibrium.

One series has as its target VSIG-3 (Homo sapiens) (UniProt Q5DX21).
Another series deals with PSGL-1 (Homo sapiens) (UniProt Q14242).

Values joined by “and” are separate entries in the source; they are usually repeats but may differ in a detail not shown here. Identical values can stand only once.

UniProt Q5DX21, sequence (Q5DX21 23-241): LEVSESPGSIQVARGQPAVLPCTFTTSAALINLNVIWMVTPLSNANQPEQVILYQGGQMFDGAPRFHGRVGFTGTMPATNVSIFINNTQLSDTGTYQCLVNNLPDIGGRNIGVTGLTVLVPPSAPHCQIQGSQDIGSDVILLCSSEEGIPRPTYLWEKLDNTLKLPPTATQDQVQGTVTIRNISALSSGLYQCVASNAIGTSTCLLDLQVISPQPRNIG
UniProt Q14242, sequence (Q14242 42-320): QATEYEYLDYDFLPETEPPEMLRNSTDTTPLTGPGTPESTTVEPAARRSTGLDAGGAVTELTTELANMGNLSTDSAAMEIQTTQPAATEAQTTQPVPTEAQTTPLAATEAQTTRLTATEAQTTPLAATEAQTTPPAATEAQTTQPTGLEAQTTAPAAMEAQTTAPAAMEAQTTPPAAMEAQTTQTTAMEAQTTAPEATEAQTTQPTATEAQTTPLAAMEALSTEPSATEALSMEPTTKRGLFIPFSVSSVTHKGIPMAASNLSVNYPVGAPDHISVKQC

On to VISTA (from UniProt Q9H7M9), for which the equilibrium dissociation constant (Kd) is 20 nM and 80 nM with VSIG-3 (Homo sapiens); 4 nM in the series with PSGL-1 (Homo sapiens).
